Source: patent US20200024330A1

Columns and labels:
Assay in all cases: cell-based or functional assay
[1] = target: HIV-1 Env of isolate MGRM-F1-008 (HIV-1)
[2] = target: HIV-1 Env of isolate 92BR020 (HIV-1)
[3] = target: HIV-1 envelope glycoprotein (Env) of isolate MGRM-Chronic-B-008, on pseudovirus (HIV-1)
[4] = target: HIV-1 envelope glycoprotein (Env) of isolate APV_17, on pseudovirus (HIV-1)
[5] = target: HIV-1 envelope glycoprotein (Env) of isolate MGRM-Chronic-B-018, on pseudovirus (HIV-1)
[6] = target: HIV-1 Env of isolate MGRM-C-027 (subtype C), on pseudovirus (HIV-1)
[7] = target: HIV-1 Env of isolate MGRM-F1-020 (clade F), on pseudovirus (HIV-1)
[8] = target: HIV-1 Env of isolate MGRM-Chronic-B-024 (subtype B) (HIV-1)
[9] = target: HIV-1 envelope glycoprotein (Env) of isolate MGRM-Chronic-B-002, on pseudovirus (HIV-1)
[10] = target: HIV-1 envelope glycoprotein (Env) of isolate CAAN.A2, on pseudovirus (HIV-1)
[11] = target: HIV-1 ADA Env (pseudovirus) (HIV-1 ADA)
[12] = target: aMLV envelope on pseudovirus (negative control)
[13] = target: HIV-1 JR-CSF Env T202A (HIV-1 JR-CSF) (UniProt P20871)
[14] = target: HIV-1 JR-CSF Env N411A (HIV-1 (isolate JR-CSF)) (UniProt P20871)
[15] = target: HIV-1 JR-CSF Env N386A (HIV-1 isolate JR-CSF) (UniProt P20871)
[16] = target: HIV-1 JR-CSF Env T303A (HIV-1 JR-CSF) (UniProt P20871)
[17] = target: HIV-1 JR-CSF Env H330A (HIV-1 isolate JR-CSF) (UniProt P20871)
[18] = target: HIV-1 JR-CSF Env T388A (HIV-1 (isolate JR-CSF)) (UniProt P20871)
[19] = target: HIV-1 JR-CSF Env F317A (HIV-1 isolate JR-CSF) (UniProt P20871)
[20] = target: HIV-1 JR-CSF Env T297A (HIV-1 JR-CSF) (UniProt P20871)
[21] = target: HIV-1 JR-CSF Env N332A (HIV-1 isolate JR-CSF) (UniProt P20871)
[22] = target: HIV-1 JR-CSF Env Q337A (HIV-1 isolate JR-CSF) (UniProt P20871)
[23] = target: HIV-1 JR-CSF Env N295A (HIV-1 JR-CSF) (UniProt P20871)
[24] = target: HIV-1 APV17 envelope glycoprotein (Env) (HIV-1)
[25] = target: HIV-1 JR-CSF Env N262A (HIV-1 JR-CSF) (UniProt P20871)
[26] = target: HIV-1 JR-CSF Env N301A (HIV-1 JR-CSF) (UniProt P20871)
[27] = target: HIV-1 JR-CSF Env D325A (HIV-1 isolate JR-CSF) (UniProt P20871)
[28] = target: HIV-1 JR-CSF Env T320A (HIV-1 isolate JR-CSF) (UniProt P20871)
[29] = target: HIV-1 JR-CSF Env I309A (HIV-1 JR-CSF) (UniProt P20871)
[30] = target: HIV-1 JR-CSF Env N339A (HIV-1 isolate JR-CSF) (UniProt P20871)
[31] = target: HIV-1 JR-CSF Env W395A (HIV-1 (isolate JR-CSF)) (UniProt P20871)
[32] = target: HIV-1 APV13 envelope glycoprotein (Env) (HIV-1)

Question: For VRC01 (antibody), which IC50, pseudovirus neutralization [1] is on record?
Answer: 1.11 µg/mL

Question: And the IC50 [2]?
Answer: 0.29 µg/mL

Question: With PGV04 (antibody) as the substance, how does the IC50, pseudovirus neutralization [3] read?
Answer: 0.166 µg/mL

Question: What about the IC50 (µg/mL), pseudovirus neutralization [1] of the same substance?
Answer: 1.03 µg/mL

Question: And the IC50, pseudovirus neutralization [4]?
Answer: 0.309 µg/mL

Question: What about the IC50, pseudovirus neutralization [5] of the same substance?
Answer: 0.164 µg/mL

Question: What about the IC50 (µg/mL), pseudovirus neutralization [6] of the same substance?
Answer: 2.76 µg/mL

Question: What about the IC50 (µg/mL), single-round pseudovirus neutralization [7] of the same substance?
Answer: 5.99 µg/mL

Question: What about the IC50 (µg/mL), pseudovirus neutralization [8] of the same substance?
Answer: 2.52 µg/mL

Question: What about the IC50, pseudovirus neutralization [9] of the same substance?
Answer: 0.142 µg/mL

Question: And the IC50, pseudovirus neutralization [10]?
Answer: 2.26 µg/mL

Question: What does the source list for 1496_C09 (PG9) (TCN-109) (antibody)?
Answer: IC50 (ug/ml), neutralization [11]: 0.2 µg/mL; IC50, pseudovirus neutralization [3]: 8.78 µg/mL; IC50, pseudovirus neutralization [4]: 34.8 µg/mL; IC50, pseudovirus neutralization [5]: 0.216 µg/mL; IC50 (µg/mL), pseudovirus neutralization [6]: 5.36 µg/mL; IC50 (µg/mL), single-round pseudovirus neutralization [7]: 6.4 µg/mL; IC50 (µg/mL), pseudovirus neutralization [8]: 0.222 µg/mL; IC50, pseudovirus neutralization [9]: 3.44 µg/mL; IC50, pseudovirus neutralization [10]: 19.3 µg/mL

Question: Which results are given for 4858_P08 (PGT-123) (antibody)?
Answer: IC50, pseudovirus neutralization [12]: > 10 µg/mL; IC80, pseudovirus neutralization [12]: > 10 µg/mL; IC90 (pseudovirus neutralization) [12]: > 10 µg/mL; IC95, pseudovirus neutralization [12]: > 10 µg/mL

Question: What does the source list for PGT-121 (antibody)?
Answer: Fold IC50 increase relative to wild-type [13]: 1.2 fold; Fold IC50 increase relative to wild-type [14]: 0.4 fold; Fold IC50 increase relative to wild-type [15]: 1.3 fold; Fold IC50 increase relative to wild-type [16]: 0.7 fold; Fold IC50 increase relative to wild-type [17]: 0.8 fold; Fold IC50 increase relative to wild-type [18]: 0.9 fold; Fold IC50 increase relative to wild-type [19]: 1.7 fold; Fold IC50 increase relative to wild-type [20]: 0.7 fold; Fold IC50 increase relative to wild-type [21]: > 200 fold; Fold IC50 increase relative to wild-type [22]: 1 fold; Fold IC50 increase relative to wild-type [23]: 0.6 fold; IC50 neutralization [24]: 0.095 µg/mL; Fold IC50 increase relative to wild-type [25]: 1.1 fold; Fold IC50 increase relative to wild-type [26]: 0.4 fold; Fold IC50 increase relative to wild-type [27]: 2 fold; Primary Neutralization Index (B cell culture well 4838 L06) [2]: 4.9; Primary Neutralization Index (B cell culture well 4873 E03) [2]: 3.6; Fold IC50 increase relative to wild-type [28]: 1.2 fold; Fold IC50 increase relative to wild-type [29]: 1.1 fold; Fold IC50 increase relative to wild-type [30]: 0.5 fold; Fold IC50 increase relative to wild-type [31]: 0.5 fold; IC50 neutralization [32]: 0.316 µg/mL
